# Test results as given in paper PMC4530019.
# Target: cardiac ryanodine receptor (RyR2) (rat (endogenous in ventricular myocytes)) (UniProt B0LPN4)
# UniProt B0LPN4, sequence (B0LPN4 whole entry): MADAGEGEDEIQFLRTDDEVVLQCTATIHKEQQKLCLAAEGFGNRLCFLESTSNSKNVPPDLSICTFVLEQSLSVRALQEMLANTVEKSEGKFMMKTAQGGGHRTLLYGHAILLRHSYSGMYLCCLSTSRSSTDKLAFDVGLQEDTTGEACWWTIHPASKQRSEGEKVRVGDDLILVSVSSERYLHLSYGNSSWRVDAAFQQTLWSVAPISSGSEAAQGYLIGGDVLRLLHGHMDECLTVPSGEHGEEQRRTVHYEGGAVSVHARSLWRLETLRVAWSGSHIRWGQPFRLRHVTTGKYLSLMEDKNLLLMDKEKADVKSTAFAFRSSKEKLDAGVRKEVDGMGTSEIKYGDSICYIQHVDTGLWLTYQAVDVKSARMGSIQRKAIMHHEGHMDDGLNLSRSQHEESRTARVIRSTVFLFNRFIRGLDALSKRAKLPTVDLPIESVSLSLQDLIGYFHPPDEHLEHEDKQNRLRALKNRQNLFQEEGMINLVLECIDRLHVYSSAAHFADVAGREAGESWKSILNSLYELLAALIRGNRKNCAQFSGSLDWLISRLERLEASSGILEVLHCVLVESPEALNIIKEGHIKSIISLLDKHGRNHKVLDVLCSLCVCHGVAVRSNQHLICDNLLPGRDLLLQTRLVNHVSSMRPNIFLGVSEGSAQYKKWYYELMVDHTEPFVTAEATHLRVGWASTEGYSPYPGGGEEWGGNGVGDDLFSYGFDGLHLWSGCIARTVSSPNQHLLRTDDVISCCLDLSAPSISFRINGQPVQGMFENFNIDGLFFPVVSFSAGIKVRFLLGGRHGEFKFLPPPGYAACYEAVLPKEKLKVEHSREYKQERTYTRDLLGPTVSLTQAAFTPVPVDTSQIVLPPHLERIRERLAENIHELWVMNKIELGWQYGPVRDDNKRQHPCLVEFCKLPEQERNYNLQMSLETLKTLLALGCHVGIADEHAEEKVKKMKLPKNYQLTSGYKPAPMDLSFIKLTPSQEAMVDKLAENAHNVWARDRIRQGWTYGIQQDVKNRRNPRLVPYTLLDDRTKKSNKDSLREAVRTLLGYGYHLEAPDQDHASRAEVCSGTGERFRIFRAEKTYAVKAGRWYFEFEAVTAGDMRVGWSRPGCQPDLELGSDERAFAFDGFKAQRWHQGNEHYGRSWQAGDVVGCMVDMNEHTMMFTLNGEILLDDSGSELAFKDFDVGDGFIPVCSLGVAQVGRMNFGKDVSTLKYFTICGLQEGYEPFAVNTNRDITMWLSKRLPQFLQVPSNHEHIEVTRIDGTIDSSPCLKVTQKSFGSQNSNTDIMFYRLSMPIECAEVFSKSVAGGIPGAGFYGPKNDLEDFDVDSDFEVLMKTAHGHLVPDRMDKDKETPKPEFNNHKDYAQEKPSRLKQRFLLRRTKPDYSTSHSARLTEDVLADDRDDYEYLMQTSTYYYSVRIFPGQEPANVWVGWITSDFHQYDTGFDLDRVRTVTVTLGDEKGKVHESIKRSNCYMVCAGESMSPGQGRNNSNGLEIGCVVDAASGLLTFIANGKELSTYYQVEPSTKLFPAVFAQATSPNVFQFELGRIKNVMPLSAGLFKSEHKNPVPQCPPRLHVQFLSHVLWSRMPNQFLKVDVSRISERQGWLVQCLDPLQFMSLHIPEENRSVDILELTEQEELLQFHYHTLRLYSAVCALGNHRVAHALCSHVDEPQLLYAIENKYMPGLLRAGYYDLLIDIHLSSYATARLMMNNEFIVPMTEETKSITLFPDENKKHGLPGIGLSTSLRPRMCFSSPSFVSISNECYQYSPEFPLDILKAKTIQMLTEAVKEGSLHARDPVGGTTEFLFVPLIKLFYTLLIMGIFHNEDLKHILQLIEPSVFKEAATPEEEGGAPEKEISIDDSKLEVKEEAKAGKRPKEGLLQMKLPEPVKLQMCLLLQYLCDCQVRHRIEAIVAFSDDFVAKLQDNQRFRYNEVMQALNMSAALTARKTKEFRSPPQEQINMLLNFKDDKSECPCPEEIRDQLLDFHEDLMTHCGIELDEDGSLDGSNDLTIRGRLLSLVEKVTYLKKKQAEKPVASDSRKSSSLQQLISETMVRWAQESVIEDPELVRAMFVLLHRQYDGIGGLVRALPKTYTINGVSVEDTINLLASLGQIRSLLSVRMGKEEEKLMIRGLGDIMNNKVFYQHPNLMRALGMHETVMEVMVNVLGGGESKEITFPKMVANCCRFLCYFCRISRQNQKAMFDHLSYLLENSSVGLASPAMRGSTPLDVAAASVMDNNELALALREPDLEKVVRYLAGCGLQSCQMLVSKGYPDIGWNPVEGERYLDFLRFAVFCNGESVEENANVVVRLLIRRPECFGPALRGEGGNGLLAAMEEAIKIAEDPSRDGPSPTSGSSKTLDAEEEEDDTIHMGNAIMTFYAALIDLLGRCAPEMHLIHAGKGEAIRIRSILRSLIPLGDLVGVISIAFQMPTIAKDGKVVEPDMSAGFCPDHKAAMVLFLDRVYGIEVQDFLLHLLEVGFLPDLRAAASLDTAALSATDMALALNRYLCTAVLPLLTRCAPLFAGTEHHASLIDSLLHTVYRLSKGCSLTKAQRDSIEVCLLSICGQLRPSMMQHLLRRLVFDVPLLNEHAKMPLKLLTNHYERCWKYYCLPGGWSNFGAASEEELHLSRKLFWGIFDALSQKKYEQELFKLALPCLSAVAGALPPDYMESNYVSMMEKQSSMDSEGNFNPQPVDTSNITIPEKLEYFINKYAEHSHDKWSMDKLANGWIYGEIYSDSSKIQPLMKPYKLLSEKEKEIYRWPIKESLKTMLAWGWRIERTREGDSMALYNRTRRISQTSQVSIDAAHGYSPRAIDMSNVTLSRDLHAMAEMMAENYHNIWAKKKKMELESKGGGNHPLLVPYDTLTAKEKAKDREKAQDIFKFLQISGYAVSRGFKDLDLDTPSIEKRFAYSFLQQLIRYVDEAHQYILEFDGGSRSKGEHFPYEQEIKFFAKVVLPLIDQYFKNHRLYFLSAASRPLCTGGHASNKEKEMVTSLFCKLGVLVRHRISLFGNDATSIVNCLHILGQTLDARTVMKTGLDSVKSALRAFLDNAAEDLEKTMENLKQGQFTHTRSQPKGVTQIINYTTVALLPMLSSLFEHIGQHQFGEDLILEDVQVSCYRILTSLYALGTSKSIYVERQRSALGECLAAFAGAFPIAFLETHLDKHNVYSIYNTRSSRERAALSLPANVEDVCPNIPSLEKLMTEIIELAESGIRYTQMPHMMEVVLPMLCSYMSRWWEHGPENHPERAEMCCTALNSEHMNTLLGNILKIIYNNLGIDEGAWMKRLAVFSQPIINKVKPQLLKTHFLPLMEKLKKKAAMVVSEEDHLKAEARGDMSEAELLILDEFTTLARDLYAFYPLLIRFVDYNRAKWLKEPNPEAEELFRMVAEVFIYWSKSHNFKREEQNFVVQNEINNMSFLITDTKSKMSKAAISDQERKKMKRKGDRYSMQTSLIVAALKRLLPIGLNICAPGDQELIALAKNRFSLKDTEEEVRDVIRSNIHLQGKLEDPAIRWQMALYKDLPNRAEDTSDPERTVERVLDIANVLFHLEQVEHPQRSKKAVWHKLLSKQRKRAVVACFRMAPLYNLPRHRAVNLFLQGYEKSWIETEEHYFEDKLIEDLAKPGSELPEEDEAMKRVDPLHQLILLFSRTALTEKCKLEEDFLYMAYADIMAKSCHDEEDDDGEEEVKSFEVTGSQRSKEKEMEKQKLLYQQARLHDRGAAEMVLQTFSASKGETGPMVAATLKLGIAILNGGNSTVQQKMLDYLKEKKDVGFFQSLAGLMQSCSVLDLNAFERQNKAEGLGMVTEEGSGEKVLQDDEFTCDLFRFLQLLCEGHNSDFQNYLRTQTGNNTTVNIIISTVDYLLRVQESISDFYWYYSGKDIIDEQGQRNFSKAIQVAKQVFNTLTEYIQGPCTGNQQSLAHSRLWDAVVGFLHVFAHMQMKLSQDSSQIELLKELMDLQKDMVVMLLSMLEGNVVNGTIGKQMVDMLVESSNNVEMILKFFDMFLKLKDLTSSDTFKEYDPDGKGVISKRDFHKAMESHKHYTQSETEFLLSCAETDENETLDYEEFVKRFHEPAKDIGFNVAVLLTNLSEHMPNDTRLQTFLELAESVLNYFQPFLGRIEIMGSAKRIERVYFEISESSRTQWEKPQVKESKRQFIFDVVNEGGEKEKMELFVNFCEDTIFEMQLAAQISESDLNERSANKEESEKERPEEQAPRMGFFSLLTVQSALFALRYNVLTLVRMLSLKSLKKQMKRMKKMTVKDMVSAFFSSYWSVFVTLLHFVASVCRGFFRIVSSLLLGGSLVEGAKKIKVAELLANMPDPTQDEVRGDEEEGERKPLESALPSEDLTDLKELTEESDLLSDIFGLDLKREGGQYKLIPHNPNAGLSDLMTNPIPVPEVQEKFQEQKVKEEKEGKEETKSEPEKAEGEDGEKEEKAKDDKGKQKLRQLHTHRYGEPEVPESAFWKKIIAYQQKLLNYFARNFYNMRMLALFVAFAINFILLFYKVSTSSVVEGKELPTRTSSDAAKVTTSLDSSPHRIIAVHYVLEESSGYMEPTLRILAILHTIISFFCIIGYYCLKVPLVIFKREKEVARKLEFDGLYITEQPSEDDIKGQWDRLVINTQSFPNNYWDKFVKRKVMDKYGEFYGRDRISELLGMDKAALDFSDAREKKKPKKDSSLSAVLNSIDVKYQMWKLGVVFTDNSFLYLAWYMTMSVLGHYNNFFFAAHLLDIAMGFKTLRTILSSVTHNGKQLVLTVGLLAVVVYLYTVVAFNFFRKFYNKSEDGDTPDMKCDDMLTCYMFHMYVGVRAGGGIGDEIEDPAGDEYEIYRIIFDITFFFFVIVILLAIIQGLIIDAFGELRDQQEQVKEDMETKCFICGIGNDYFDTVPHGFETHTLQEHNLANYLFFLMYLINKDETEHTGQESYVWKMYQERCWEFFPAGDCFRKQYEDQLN
substance,measurement,value
F-CaM pre-incubated in H2O2 (F-CaM^Ox) (from UniProt P0DP23 1-149) (natural protein),percent reduction of specific Z-line binding against F-CaM that was not oxidized,20%
